Target: T1, PGN_0753 (HaeR) response regulator, His6-tagged (Porphyromonas gingivalis ATCC 33277) (UniProt B2RIS7)
T1 sequence: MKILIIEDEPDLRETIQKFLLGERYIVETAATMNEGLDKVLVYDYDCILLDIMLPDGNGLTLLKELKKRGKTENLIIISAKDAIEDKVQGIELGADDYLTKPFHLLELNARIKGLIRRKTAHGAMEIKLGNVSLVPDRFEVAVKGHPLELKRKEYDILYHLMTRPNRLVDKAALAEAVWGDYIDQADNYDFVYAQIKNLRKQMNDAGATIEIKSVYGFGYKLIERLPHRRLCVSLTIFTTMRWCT
Experiment: EMSA

| Sequence | binding |
| --- | --- |
| CATTTTGATGAAATTAGAATATGATTTTACTGTGTAGTACCCCTTCTGTATTTATGCATTATAAAGTCTTCTTGGGAGACAAAATTCACATAGAAACCGAAAGAAATACCACAATCGCAAATATATGCACTTTTCCTTTAAACGCGAATCAAAATATGCATAATATATTGCCCAAAAGCTGTCATTCGGATTGATTGATGGCCTCATATTGGGTTTGCA (double strand) [rgpA (PGN_1970) promoter] | binds |
| CCCTTGTCGCTTATATTGAAAACATGTTCTTTATAATCCGATACTCTTCTTAAATCGAATTTTTTCTCTAAATTGCGCCGCAACAAAACTCCTTGAGAAAAGTACCAATAGAAATAGAAGGTAGCATTTTGCCTTTAAATTCCTTTTCTTTTCTTGGATTGTTCTTGAAATGAATCTTATTTGTGGATCTTTTTTGTTTTTTTAACCCGGCCGTGGTTCTCTGAATCACGACCATAAATTGTTTTAAAGT (double strand) [kgp (PGN_1728) promoter] | binds |
| CGTATCCGGGTTATACGATCTGTCGTTTGGATATTGAAAATCATTTCTATCGGAACTATACGCTCCATATCGGTGCGGAGAACCTGTTCGATTATAAACCCAAAGCATTGGCATTCAATTCCCCGACATCACCCGGACGTATCATATACGGGTTGGTTCGGATCACTTTCTAATACGACTTATTTGCAACAGAAATATAATTCGCCACG (double strand) [hmuS upstream region] | binds |
| TAAGTGATTGAAAGACTTCGTTTGCTGAGATTCGAGCAAATCGTCTTGGGACAAAGATATAAAAAAGTGCCACCGAATTTGCACCTCGTCCCCAAAACACAGGCGTAAAATATCCGCACATCCCGGGACTGCAAAGGGAGAGCATGCTATTTCAGGAAAAATTCAGTTTTACCATGTTATATTTGTAAAAGAAGATCAATCCAAACAGGGCTATCCAGATG (double strand) [haeR (PGN_0753) promoter] | binds |
| TAGCGTCATTCTTTTCATAGACTTTTCTTTTGCGTTAAACTTAAAATTATTACTGTTATGTTGTTTTCTTTTCTTCTCCGGTTTTACCCTAACCAAGGGAAGTCTCAAAAAGCCGCTACCGGCGTTAGACACAAGTCACGAAACTTCCACAACTGTCCTATGATACGGACAGCCACAAAACTAAATAAAAAAATGCAACCAGACTAATCCTATTATCC (double strand) [ragA (PGN_0293) promoter] | binds |
